{"source": "patent US20060193821", "about": "“Aptamers to the human IL-12 cytokine family and their use as autoimmune disease therapeutics” (published 2006)", "binders": {"B1": {"name": "ARC1455 (mixed)", "RNA": "ACAGGCAAGUAAUUGGGGAGUGCGGGCGGGGUGU", "modifications": "deoxy A,G; 2'-OMe C,U; PS 5-6; 3'-idT [PS linkage 5-6; 2'-OMe C,U at 2,6,10,13,14,21,23,27,32,34; all A,G 2'-deoxy; 3'-inverted dT at 35]"}, "B2": {"name": "ARC1462 (mixed)", "RNA": "B1 RNA", "modifications": "deoxy A,G; 2'-OMe C,U; PS 29-30; 3'-idT [2'-OMe C,U at 2,6,10,13,14,21,23,27,32,34; deoxy A,G elsewhere; PS 29-30 (N = PS linkage, left out); 3'-inverted dT at 35]"}, "B3": {"name": "ARC1543 (mixed)", "RNA": "B1 RNA", "modifications": "2'-OMe C,U and A1,A8,G9,A11,G18,A19,G20,G22,G26,G28,G29,G33; other A,G deoxy; 3'-idT"}, "B4": {"name": "ARC1460 (mixed)", "RNA": "B1 RNA", "modifications": "deoxy A,G; 2'-OMe C,U; PS 24-25; 3'-idT [PS linkage 24-25; 2'-OMe C,U at 2,6,10,13,14,21,23,27,32,34; all A,G 2'-deoxy; 3'-inverted dT at 35]"}, "B5": {"name": "ARC1453 (mixed)", "RNA": "B1 RNA", "modifications": "deoxy A,G; 2'-OMe C,U; PS 3-4; 3'-idT [PS linkage 3-4; 2'-OMe C,U at 2,6,10,13,14,21,23,27,32,34; all A,G 2'-deoxy; 3'-inverted dT at 35]"}, "B6": {"name": "ARC1465 (mixed)", "RNA": "B1 RNA", "modifications": "deoxy A,G; 2'-OMe C,U; PS 11-12,19-20,20-21,21-22,22-23,26-27; 3'-idT [2'-OMe C,U at 2,6,10,13,14,21,23,27,32,34; deoxy A,G elsewhere; PS 11-12,19-20,20-21,21-22,22-23,26-27 (N = PS linkage, left out); 3'-inverted dT at 35]"}, "B7": {"name": "ARC1471 (mixed)", "RNA": "GGCAAGUAAUUGGGGAGUGCGGGCGGGG", "modifications": "2'-OMe C,U and three purines (A7,A8,G15 of ARC979); six PS; 3'-idT [2'-OMe C,U at 3,7,10,11,18,20,24; 2'-OMe purines A4,A5,G12; deoxy A,G elsewhere; PS 8-9,16-17,17-18,18-19,19-20,23-24 (N = PS linkage, left out); 3'-inverted dT at 29]"}, "B8": {"name": "ARC1470 (mixed)", "RNA": "GGCAAGUAAUUGGGGAGUGCGGGCGGGG", "modifications": "deoxy A,G; 2'-OMe C,U; six PS; 3'-idT [2'-OMe C,U at 3,7,10,11,18,20,24; deoxy A,G elsewhere; PS 8-9,16-17,17-18,18-19,19-20,23-24 (N = PS linkage, left out); 3'-inverted dT at 29]"}}, "data": [{"target": "IL-23 (human, p19/p40 heterodimer) (Homo sapiens, UniProt Q9NPF7;P29460 SEQ:20-189,SEQ:23-328)", "sequence (Q9NPF7 20-189, chain 1 of 2)": "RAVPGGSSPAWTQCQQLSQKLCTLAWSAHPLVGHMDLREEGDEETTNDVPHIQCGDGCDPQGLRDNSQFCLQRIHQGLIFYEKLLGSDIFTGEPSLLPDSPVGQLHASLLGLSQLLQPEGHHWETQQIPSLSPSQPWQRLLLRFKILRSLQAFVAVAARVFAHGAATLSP", "sequence (P29460 23-328, chain 2 of 2)": "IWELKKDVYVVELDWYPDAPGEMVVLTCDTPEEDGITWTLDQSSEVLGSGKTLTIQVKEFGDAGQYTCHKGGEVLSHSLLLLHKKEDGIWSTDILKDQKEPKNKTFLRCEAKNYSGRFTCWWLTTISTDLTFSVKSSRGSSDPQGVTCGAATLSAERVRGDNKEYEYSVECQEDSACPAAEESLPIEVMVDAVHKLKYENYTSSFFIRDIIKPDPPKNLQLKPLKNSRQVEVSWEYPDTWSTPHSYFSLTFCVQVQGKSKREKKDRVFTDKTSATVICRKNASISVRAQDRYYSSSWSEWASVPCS", "experiment": "filter; DPBS Ca Mg", "conditions": "tags: R&D Systems, carrier free", "protocol": "The dot blot binding assay previously described was used to characterize the relative potency of the majority of the aptamers synthesized. For KD determination, chemically synthesized aptamers were purified using denaturing polyacrylamide gel electrophoresis, 5′end labeled with γ-³²P ATP and were tested for direct binding to full human IL-23. An 8 point protein titration was used in the dot blot binding assay (either {100 nM, 30 nM, 10 nM, 3 nM, 1 nM, 300 pM, 100 pM, 0 pM} or {10 nM, 3 nM, 1 nM, 300 pM, 100 pM, 30 pM, 10 pM, 0 pM}) in Dulbecco's PBS (with Mg⁺⁺ and Ca⁺⁺) with 0.1 mg/mL BSA. KD values were calculated by fitting the equation y=(max/(1+K/protein))+yint using KaleidaGraph (KaleidaGraph v. 3.51, Synergy Software). Sequences of the ARC979 derivatives synthesized, purified and assayed for binding to IL-23 as well as the results of the protein binding characterization are tabulated below in Tables 29 and 30.", "units": {"Kd": "nM"}, "values": [{"binder": "ACAGGCAAGUAAUUGGGGAGUGCGGGCGGGGUGU (mixed, 2'-OMe C,U and G25; other A,G deoxy; 3'-idT)", "note": "[ARC1444]", "Kd": 4.4}, {"binder": "B1", "Kd": 1.6}, {"binder": "B2", "Kd": 1.7}, {"binder": "ACAGGCAAGUAAUUGGGGAGUGCGGGCGGGGUGU (mixed, 2'-OMe C,U and A1,G33; other A,G deoxy; 3'-idT)", "note": "[ARC1539]", "Kd": 6.6}, {"binder": "ACAGGCAAGUAAUUGGGGAGUGCGGGCGGGGUGU (mixed, 2'-OMe C,U and G4; other A,G deoxy; 3'-idT)", "note": "[ARC1429]", "Kd": 29.5}, {"binder": "ACAGGCAAGUAAUUGGGGAGUGCGGGCGGGGUGU (mixed, 2'-OMe C,U and G18; other A,G deoxy; 3'-idT)", "note": "[ARC1439]", "Kd": 4.8}, {"binder": "ACAGGCAAGUAAUUGGGGAGUGCGGGCGGGGUGU (mixed, 2'-OMe C,U and A19; other A,G deoxy; 3'-idT)", "note": "[ARC1440]", "Kd": 6.7}, {"binder": "B3", "Kd": 5.9}, {"binder": "ACAGGCAAGUAAUUGGGGAGUGCGGGCGGGGUGU (mixed, 2'-OMe C,U and A12; other A,G deoxy; 3'-idT)", "note": "[ARC1435]", "Kd": 9.8}, {"binder": "ACAGGCAAGUAAUUGGGGAGUGCGGGCGGGGUGU (mixed, 2'-OMe C,U and A1,A3,G33; other A,G deoxy; 3'-idT)", "note": "[ARC1451]", "Kd": 10.2}, {"binder": "ACAGGCAAGUAAUUGGGGAGUGCGGGCGGGGUGU (mixed, 2'-OMe C,U and A8,G9,A11; other A,G deoxy; 3'-idT)", "note": "[ARC1540]", "Kd": 7.5}, {"binder": "ACAGGCAAGUAAUUGGGGAGUGCGGGCGGGGUGU (mixed, 2'-OMe C,U and G17; other A,G deoxy; 3'-idT)", "note": "[ARC1438]", "Kd": 6}, {"binder": "ACAGGCAAGUAAUUGGGGAGUGCGGGCGGGGUGU (mixed, 2'-OMe C,U and G26,G28,G29; other A,G deoxy; 3'-idT)", "note": "[ARC1542]", "Kd": 1.2}, {"binder": "B4", "Kd": 5.8}, {"binder": "ACAGGCAAGUAAUUGGGGAGUGCGGGCGGGGUGU (mixed, 2'-OMe C,U and A7,A8,G15; other A,G deoxy; 3'-idT)", "note": "[ARC1452]", "Kd": 18.9}, {"binder": "B5", "Kd": 4.4}, {"binder": "ACAGGCAAGUAAUUGGGGAGUGCGGGCGGGGUGU (mixed, 2'-OMe C,U and G5; other A,G deoxy; 3'-idT)", "note": "[ARC1430]", "Kd": 14.2}, {"binder": "B6", "Kd": 1.3}, {"binder": "B7", "Kd": 23.5}, {"binder": "B8", "Kd": 8.6}]}]}
